Source: patent publication US20160297851A1 (Scripps Research, published 2016)
Where two headings read alike, the source gives them in different places.

Tests used:
[1] = biological target: T1, E. coli MG1655 SPase (LepB), wild type, in the bacteria (Escherichia coli, UniProt P00803 1-324); experiment: cell-based or functional assay
[2] = biological target: T2, Staphylococcus epidermidis RP62A signal peptidase IB, wild type (Staphylococcus epidermidis); experiment: cell-based or functional assay
T2 chain: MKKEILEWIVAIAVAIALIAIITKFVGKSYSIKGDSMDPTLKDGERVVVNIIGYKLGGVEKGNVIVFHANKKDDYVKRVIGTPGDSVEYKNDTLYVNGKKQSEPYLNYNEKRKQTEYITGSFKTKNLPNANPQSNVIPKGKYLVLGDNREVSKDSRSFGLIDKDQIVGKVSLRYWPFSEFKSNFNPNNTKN

[3] = biological target: T3, S. aureus NCTC 8325 SPase (SpsB), wild type, in the bacteria (Staphylococcus aureus); experiment: cell-based or functional assay
[4] = biological target: T4, Staphylococcus epidermidis signal peptidase IB S29P (strain PAS9001) (Staphylococcus epidermidis); experiment: cell-based or functional assay
T4 chain: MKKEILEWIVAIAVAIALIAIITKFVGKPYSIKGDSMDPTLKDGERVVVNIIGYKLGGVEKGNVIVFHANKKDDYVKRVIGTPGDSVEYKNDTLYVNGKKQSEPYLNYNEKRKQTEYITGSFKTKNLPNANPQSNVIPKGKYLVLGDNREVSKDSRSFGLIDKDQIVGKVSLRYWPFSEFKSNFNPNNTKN

[5] = biological target: T5, P. aeruginosa PAO1 SPase (LepB), wild type, in the bacteria (Pseudomonas aeruginosa, UniProt Q9I5G7 1-284); experiment: cell-based or functional assay
T5 sequence: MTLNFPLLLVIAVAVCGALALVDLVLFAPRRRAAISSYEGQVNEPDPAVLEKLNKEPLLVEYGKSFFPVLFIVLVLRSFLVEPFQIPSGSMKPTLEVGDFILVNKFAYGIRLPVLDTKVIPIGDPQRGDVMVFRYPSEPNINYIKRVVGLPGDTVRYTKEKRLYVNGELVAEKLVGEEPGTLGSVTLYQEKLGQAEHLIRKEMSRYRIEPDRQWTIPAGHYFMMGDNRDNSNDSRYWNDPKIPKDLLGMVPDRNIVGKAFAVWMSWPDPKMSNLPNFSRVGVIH

[6] = biological target: E. coli MG1655 SPase (LepB) P84L, in the bacteria (E. coli, UniProt P00803 1-324); experiment: cell-based or functional assay
[7] = biological target: T6, S. aureus SPase (SpsB) P29S, strain PAS8001, in the bacteria (Staphylococcus aureus); experiment: cell-based or functional assay
[8] = biological target: T7, Staphylococcus epidermidis signal peptidase IB S31P (strain PAS9002) (Staphylococcus epidermidis); experiment: cell-based or functional assay
T7 chain: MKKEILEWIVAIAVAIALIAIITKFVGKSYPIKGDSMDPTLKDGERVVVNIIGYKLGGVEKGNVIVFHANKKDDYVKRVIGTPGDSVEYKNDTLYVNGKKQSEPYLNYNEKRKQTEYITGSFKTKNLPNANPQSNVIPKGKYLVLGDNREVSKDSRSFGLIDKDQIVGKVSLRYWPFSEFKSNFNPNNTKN

[9] = biological target: T4, Staphylococcus epidermidis signal …; experiment: cell-based or functional assay
[10] = biological target: T8, detergent-solubilized full-length wild type E. coli SPase (His6x-tagged) (Escherichia coli, UniProt P00803 1-324); experiment: steady-state binding by increase of arylomycin fluorescence; detergent-solubilized full-length His-tagged SPase
T8 construct: Plasmid pET23-lepB came from Dr. Mark Paetzel; also called full-length Pro-variant of E. coli SPase; full length His-tagged E. coli SPase; not shown: His6x tag of plasmid pET23-lepB

[11] = biological target: T9, P84S variant of detergent-solubilized full-length E. coli SPase (His6x-tagged) (Escherichia coli, UniProt P00803 1-324); experiment: as above
[12] = biological target: T1, E. coli MG1655 SPase (LepB), wild type, …; experiment: cell-based or functional assay; remark: listed apart in the source
[13] = biological target: T2, Staphylococcus epidermidis RP62A signal …; experiment: cell-based or functional assay
[14] = biological target: E. coli SPase (LepB) P84S, strain PAS0232, in the bacteria (Escherichia coli, UniProt P00803 1-324); experiment: cell-based or functional assay
[15] = biological target: T7, Staphylococcus epidermidis signal …; experiment: cell-based or functional assay
[16] = biological target: T3, S. aureus NCTC 8325 SPase (SpsB), wild …; experiment: cell-based or functional assay; remark: listed apart in the source
[17] = biological target: T4, Staphylococcus epidermidis signal …; experiment: cell-based or functional assay
[18] = biological target: T5, P. aeruginosa PAO1 SPase (LepB), wild …; experiment: cell-based or functional assay; remark: listed apart in the source
[19] = biological target: T6, S. aureus SPase (SpsB) P29S, strain …; experiment: cell-based or functional assay; remark: listed apart in the source
[20] = biological target: T10, P. aeruginosa SPase (LepB) P84S, strain PAS2006, in the bacteria (Pseudomonas aeruginosa, UniProt Q9I5G7 1-284); experiment: cell-based or functional assay
T10 sequence: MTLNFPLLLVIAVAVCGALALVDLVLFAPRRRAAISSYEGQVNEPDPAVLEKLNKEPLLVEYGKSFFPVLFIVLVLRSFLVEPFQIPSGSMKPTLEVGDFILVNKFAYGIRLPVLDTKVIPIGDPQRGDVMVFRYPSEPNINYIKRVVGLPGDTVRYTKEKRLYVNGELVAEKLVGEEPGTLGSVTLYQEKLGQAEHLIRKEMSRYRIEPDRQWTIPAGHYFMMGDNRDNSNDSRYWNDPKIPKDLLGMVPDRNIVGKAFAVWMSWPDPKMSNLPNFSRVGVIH

[21] = biological target: T8, detergent-solubilized full-length wild …; experiment: steady-state increase of arylomycin fluorescence (ex 320 nm, em 410 nm) on binding detergent-solubilised full-length wild type E. coli SPase
[22] = biological target: T9, P84S variant of detergent-solubilized …; experiment: steady-state increase of arylomycin fluorescence (ex 320 nm, em 410 nm) on binding detergent-solubilised full-length E. coli SPase P84S

B1: arylomycin C16 (peptide)
peptide: SAGXAY
modifications: C16 fatty acyl (palmitoyl) tail on the N-terminus of N-methyl-D-Ser2; D-Ala3; N-methyl-4-hydroxyphenylglycine (MeHpg) at 5, written X; biaryl bridge between MeHpg5 and Tyr7 (macrocycle MeHpg5-Ala6-Tyr7); free C-terminal carboxyl; the filing counts the lipid tail as position 1
notes: Synthetic lipohexapeptide derived from the natural product arylomycin A2, with a straight C16 fatty acid tail; It has non-standard and D-residues and is macrocyclic, so it is a borderline case of 'peptide'; also called arylomycin A-C16; Arylomycin A2 C16
[1]
  MIC: > 64 µg/mL
[2]
  MIC: 0.5 µg/mL
[3]
  MIC: > 64 µg/mL
[4]
  MIC: 8 µg/mL
[5]
  MIC: > 64 µg/mL
[6]
  MIC: 0.5 µg/mL
[7]
  MIC: 2 µg/mL
[8]
  fold elevation of MIC compared to the wild type strain: > 256 fold
[9]
  fold elevation of MIC compared to the wild type strain: 32 fold
[10]
  Kd: 60 nM
[11]
  Kd: 5.7 nM
[12]
  MIC: > 128 µg/mL
[13]
  MIC: 0.25 µg/mL
[14]
  MIC: 2 µg/mL
[15]
  MIC: > 128 µg/mL
[16]
  MIC: > 128 µg/mL
[17]
  MIC: 8 µg/mL
[18]
  MIC: > 128 µg/mL
[19]
  MIC: 2 µg/mL
[20]
  MIC: 8 µg/mL
[21]
  EC50 (read off the curve): ~100 nM
[22]
  EC50 (read off the curve): ~10 nM
  Kd: 5.73 nM
